Reference: IntAct's records for PubMed 31515488

B1: Paraneoplastic antigen-like protein 5 (Homo sapiens), Q96PV4 (parent)
chain: MALTLLEDWCKGMDMDPRKALLIVGIPMECSEVEIQDTVKAGLQPLCAYRVLGRMFRREDNAKAVFIELADTVNYTTLPSHIPGKGGSWEVVVKPRNPDDEFLSRLNYFLKDEGRSMTDVARALGCCSLPAESLDAEVMPQVRSPPLEPPKESMWYRKLKVFSGTASPSPGEETFEDWLEQVTEIMPIWQVSEVEKRRRLLESLRGPALSIMRVLQANNDSITVEQCLDALKQIFGDKEDFRASQFRFLQTSPKIGEKVSTFLLRLEPLLQKAVHKSPLSVRSTDMIRLKHLLARVAMTPALRGKLELLDQRGCPPNFLELMKLIRDEEEWENTEAVMKNKEKPSGRGRGASGRQARAEASVSAPQATVQARSFSDSSPQTIQGGLPPLVKRRRLLGSESTRGEDHGQATYPKAENQTPGREGPQAAGEELGNEAGAGAMSHPKPWET
B2: Multifunctional procollagen lysine hydroxylase and glycosyltransferase LH3 (Homo sapiens), O60568 (parent)
chain: MTSSGPGPRFLLLLPLLLPPAASASDRPRGRDPVNPEKLLVITVATAETEGYLRFLRSAEFFNYTVRTLGLGEEWRGGDVARTVGGGQKVRWLKKEMEKYADREDMIIMFVDSYDVILAGSPTELLKKFVQSGSRLLFSAESFCWPEWGLAEQYPEVGTGKRFLNSGGFIGFATTIHQIVRQWKYKDDDDDQLFYTRLYLDPGLREKLSLNLDHKSRIFQNLNGALDEVVLKFDRNRVRIRNVAYDTLPIVVHGNGPTKLQLNYLGNYVPNGWTPEGGCGFCNQDRRTLPGGQPPPRVFLAVFVEQPTPFLPRFLQRLLLLDYPPDRVTLFLHNNEVFHEPHIADSWPQLQDHFSAVKLVGPEEALSPGEARDMAMDLCRQDPECEFYFSLDADAVLTNLQTLRILIEENRKVIAPMLSRHGKLWSNFWGALSPDEYYARSEDYVELVQRKRVGVWNVPYISQAYVIRGDTLRMELPQRDVFSGSDTDPDMAFCKSFRDKGIFLHLSNQHEFGRLLATSRYDTEHLHPDLWQIFDNPVDWKEQYIHENYSRALEGEGIVEQPCPDVYWFPLLSEQMCDELVAEMEHYGQWSGGRHEDSRLAGGYENVPTVDIHMKQVGYEDQWLQLLRTYVGPMTESLFPGYHTKARAVMNFVVRYRPDEQPSLRPHHDSSTFTLNVALNHKGLDYEGGGCRFLRYDCVISSPRKGWALLHPGRLTHYHEGLPTTWGTRYIMVSFVDP
partner: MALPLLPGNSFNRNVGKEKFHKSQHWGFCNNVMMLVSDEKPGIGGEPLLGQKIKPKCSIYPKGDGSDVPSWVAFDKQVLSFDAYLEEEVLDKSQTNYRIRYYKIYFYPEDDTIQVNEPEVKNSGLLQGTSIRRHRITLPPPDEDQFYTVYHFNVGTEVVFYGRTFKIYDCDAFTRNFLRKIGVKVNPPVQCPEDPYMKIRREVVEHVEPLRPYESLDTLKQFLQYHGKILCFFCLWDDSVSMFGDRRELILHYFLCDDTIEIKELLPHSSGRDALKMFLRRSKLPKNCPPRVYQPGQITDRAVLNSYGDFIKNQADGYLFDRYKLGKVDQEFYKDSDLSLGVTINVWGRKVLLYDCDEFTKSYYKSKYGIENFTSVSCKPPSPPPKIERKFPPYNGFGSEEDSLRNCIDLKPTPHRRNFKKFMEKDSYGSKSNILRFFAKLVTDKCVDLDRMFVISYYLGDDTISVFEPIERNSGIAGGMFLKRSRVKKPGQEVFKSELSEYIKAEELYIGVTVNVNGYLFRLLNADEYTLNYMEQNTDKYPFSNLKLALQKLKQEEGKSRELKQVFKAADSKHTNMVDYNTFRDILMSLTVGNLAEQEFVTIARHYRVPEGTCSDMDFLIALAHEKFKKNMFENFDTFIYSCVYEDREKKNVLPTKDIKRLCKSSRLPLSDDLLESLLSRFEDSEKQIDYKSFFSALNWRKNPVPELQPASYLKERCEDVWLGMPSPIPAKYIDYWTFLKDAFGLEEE

Variants of: B1
Details: with arpc4_human ARPC4, P59998

Variant | effect of a mutation on the interaction
V274M | with no effect

Variants of: B1
Details: with zfy26_human ZFYVE26, Q68DK2
Sequence of zfy26_human ZFYVE26, Q68DK2 (Q68DK2 whole entry): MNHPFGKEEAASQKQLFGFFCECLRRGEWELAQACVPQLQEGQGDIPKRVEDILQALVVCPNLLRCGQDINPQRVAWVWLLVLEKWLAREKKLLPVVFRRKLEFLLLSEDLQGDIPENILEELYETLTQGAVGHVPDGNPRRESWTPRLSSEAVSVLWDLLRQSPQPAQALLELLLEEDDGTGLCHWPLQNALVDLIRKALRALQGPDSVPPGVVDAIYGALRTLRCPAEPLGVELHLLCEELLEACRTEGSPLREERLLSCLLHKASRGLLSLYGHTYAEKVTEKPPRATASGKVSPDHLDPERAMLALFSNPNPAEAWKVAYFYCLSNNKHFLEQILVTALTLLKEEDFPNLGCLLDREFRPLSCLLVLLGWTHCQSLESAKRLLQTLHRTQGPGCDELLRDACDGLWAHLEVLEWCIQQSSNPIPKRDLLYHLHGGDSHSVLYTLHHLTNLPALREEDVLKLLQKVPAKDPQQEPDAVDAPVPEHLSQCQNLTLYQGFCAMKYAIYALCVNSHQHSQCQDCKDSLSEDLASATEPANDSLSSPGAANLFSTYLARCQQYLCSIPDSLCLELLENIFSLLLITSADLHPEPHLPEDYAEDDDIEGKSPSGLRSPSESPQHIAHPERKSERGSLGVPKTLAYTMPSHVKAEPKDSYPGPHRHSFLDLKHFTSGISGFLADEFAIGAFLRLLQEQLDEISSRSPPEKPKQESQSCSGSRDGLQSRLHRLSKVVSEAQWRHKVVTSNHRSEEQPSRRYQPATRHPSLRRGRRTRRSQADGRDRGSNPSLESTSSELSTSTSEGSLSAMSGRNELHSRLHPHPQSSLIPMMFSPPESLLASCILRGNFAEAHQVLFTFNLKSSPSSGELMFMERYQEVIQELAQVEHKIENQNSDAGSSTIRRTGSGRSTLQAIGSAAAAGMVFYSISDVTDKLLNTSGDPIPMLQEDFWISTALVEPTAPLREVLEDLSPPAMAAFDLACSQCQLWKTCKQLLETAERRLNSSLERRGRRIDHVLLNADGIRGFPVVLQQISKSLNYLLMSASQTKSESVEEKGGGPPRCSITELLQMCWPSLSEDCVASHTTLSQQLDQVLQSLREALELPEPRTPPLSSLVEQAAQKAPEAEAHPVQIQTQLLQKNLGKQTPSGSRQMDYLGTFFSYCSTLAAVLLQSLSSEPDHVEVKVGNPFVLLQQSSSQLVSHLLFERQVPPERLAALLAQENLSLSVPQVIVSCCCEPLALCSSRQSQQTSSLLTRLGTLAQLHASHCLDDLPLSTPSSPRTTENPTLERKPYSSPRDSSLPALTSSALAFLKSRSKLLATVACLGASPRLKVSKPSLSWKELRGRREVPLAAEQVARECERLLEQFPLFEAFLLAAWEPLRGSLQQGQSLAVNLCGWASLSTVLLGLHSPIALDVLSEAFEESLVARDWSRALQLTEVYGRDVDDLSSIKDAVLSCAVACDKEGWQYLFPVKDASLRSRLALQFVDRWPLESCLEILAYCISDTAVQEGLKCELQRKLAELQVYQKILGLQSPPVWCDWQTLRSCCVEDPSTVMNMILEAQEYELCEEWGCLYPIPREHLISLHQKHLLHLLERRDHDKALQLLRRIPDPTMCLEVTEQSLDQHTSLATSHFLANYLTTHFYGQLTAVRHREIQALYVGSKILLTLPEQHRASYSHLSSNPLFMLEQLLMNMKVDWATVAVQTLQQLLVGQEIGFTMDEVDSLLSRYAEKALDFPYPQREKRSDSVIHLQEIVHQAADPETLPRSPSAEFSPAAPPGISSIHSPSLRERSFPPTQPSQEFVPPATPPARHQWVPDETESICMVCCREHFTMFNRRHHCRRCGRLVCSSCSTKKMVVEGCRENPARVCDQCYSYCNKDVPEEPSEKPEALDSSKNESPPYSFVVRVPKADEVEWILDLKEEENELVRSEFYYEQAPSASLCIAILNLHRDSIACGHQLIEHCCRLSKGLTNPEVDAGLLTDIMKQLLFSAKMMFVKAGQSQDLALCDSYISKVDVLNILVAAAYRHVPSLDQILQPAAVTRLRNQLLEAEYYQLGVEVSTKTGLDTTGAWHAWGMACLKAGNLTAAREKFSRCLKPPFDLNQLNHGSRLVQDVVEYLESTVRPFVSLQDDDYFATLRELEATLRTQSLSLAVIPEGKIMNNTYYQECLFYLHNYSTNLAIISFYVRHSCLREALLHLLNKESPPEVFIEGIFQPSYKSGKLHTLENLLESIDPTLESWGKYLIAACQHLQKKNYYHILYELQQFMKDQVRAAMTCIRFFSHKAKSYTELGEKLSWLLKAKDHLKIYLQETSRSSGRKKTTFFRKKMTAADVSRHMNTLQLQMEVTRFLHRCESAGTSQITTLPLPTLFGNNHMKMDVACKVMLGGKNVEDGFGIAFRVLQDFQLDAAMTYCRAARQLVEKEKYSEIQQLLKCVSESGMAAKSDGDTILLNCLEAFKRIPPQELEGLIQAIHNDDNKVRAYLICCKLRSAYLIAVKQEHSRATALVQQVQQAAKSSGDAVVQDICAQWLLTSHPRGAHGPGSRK

Variant | effect of a mutation on the interaction
V274M | with no effect

Variants of: B1
Details: with ccnc_human CCNC

Variant | effect of a mutation on the interaction
V274M | with no effect

Variants of: B1
Details: with aapk1_human PRKAA1, Q13131
Sequence of aapk1_human PRKAA1, Q13131 (Q13131 whole entry, looked up): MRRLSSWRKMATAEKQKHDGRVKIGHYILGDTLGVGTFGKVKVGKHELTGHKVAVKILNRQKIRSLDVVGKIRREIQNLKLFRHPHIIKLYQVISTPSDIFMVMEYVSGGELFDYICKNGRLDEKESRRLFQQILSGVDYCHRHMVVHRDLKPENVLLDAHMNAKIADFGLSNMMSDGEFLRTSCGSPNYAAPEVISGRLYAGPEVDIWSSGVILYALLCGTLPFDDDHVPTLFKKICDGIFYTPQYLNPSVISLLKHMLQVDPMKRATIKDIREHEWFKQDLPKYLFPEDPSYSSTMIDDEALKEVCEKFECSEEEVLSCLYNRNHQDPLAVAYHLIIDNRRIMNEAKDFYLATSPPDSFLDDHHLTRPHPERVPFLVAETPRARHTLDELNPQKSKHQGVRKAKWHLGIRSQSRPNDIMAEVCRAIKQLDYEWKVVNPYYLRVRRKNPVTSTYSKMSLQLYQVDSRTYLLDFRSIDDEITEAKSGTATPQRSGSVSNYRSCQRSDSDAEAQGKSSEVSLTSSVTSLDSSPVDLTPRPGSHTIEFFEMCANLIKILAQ

Variant | effect of a mutation on the interaction
V274M | with no effect

Variants of: B2
Details: with efhc2_human EFHC2, Q5JST6

Variant | effect of a mutation on the interaction
A492V | disrupting interaction strength
